Results reported in patent US20210292414A1 (H LUNDBECK A S, published 2021).
Like-named read-outs stand apart in the source and are kept apart here.

T1: hBack
T1 chimeric human/tetraodon Sortilin extracellular region, BAP tag: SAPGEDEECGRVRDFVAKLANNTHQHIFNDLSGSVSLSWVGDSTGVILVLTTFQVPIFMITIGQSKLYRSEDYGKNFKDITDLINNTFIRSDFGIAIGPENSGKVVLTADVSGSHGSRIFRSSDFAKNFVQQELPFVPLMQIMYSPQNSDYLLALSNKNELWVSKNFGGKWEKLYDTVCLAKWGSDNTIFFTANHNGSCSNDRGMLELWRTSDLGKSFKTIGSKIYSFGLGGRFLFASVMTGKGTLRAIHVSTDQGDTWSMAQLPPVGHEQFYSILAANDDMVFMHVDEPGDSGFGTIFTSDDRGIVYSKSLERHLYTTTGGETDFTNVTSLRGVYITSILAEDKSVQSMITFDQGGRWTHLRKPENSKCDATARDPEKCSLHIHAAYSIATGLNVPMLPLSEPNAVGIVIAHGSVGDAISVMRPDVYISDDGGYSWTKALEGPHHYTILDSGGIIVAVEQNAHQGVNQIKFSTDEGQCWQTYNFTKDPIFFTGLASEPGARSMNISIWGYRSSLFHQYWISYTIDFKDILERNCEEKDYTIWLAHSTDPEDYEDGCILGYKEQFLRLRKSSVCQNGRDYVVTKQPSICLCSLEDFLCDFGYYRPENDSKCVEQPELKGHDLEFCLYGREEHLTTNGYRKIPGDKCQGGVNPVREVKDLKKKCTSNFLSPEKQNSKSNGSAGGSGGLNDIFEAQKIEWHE

T2: Sortilin SORTECDBAP_hB12390 (human/tetraodon chimera)
T2 construct: Shuffle construct: chimeric human/tetraodon Sortilin ECD with BAP tag
T2 chain: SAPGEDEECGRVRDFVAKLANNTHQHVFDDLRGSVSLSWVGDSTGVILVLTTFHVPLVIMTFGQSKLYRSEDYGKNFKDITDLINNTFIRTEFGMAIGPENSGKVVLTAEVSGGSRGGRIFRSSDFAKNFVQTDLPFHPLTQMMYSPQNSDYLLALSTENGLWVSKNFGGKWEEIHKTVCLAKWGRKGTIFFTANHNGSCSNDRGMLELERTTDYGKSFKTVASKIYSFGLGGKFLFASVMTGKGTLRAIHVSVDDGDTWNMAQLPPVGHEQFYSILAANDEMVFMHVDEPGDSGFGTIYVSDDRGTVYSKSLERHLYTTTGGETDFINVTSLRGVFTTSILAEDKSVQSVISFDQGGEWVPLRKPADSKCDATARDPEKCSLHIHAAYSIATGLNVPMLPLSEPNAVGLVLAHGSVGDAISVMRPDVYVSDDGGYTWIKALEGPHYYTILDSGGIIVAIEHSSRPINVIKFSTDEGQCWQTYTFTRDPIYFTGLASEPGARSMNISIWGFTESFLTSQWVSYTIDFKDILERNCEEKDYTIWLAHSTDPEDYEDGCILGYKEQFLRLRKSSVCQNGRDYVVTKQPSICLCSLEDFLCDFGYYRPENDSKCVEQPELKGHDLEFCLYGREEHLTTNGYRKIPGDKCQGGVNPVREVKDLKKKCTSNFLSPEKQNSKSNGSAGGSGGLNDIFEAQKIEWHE

T3: Sortilin SORTECDBAP_hB01-05 (human/tetraodon chimera)
T3 construct: Shuffle construct: chimeric human/tetraodon Sortilin ECD with BAP tag
T3 chain: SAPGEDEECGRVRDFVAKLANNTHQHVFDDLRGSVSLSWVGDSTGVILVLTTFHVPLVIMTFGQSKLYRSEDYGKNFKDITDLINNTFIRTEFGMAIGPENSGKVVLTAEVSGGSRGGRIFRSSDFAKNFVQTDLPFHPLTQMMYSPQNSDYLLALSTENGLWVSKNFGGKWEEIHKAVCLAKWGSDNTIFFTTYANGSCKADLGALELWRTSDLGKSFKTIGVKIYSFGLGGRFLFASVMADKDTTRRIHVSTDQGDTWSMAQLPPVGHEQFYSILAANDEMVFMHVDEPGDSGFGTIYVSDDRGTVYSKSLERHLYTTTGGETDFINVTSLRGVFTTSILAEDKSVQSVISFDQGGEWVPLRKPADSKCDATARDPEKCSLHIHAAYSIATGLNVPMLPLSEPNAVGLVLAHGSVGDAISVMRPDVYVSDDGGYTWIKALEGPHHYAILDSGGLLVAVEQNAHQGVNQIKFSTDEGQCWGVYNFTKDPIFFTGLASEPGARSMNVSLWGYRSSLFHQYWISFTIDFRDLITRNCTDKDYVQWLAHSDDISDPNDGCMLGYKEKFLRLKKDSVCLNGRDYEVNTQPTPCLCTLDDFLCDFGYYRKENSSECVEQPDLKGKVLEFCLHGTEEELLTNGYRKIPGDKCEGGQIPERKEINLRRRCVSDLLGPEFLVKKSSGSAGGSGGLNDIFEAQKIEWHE

T4: Sortilin SORTECDBAP_tetra (tetraodon)
T4 construct: Fully tetraodon Sortilin ECD with BAP tag; also called tetraodon; tetraodon Sortilin
T4 chain: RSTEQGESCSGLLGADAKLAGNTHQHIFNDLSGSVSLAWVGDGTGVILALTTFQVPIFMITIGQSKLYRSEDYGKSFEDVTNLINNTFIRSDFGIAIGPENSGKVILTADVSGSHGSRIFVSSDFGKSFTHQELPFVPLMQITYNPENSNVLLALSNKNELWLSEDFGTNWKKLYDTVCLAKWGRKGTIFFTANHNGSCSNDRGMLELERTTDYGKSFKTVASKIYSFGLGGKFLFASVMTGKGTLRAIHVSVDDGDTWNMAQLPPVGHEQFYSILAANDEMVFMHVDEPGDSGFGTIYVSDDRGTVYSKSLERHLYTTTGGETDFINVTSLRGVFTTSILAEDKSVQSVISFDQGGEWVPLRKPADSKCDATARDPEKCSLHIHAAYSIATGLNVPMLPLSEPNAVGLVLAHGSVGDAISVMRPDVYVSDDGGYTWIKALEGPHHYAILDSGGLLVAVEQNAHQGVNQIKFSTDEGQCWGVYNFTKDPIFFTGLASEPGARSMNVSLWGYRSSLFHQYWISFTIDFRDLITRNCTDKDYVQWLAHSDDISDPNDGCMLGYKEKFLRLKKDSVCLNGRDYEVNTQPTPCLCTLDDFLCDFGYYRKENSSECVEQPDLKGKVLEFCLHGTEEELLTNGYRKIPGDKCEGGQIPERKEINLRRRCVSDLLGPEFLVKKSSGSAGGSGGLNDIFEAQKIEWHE

B1: Antibody 6003-936 (antibody, human IgG1, V domains shown)
VH: EVQLVQSGAEVKKPGESLKISCKGSGYIFTSFWIGWVRQMPGKGLEWMGIIYPGDSDTRYSPSFQGQVTISADKSISTAYLQWSSLKASDTAMYYCARHSRGSFWYGAFQHWGQGTLVTVSS
VL: EIVLTQSPDFQSVTPKEKVTITCRASQSIGSSLHWYQQKPDQSPKLLIKYASQSFSGVPSRFSGSGSGTDFTLTINSLEAEDAAAYYCHQSSSLPHTFGPGTKVDIK
B2: Antibody 6003-423 (antibody, human IgG1, V domains shown)
VH: EVQLLESGGGLVQPGGSLRLSCEASGFTFRSYVMSWVRQAPGKGLEWVSTISGGGGNTNYTDSVKGRFTISRDNSKNTLYLQMNSLRAEDTAVYYCAKNWGSGFDYWGQGTLVTVSS
VL: EIVLTQSPATLSLSPGERATLSCRASQSVSSYLAWYQQKPGQAPRLLIYDASNRATGIPARFSGSGSGTDFTLTISSLEPEDFAVYYCQQRSNWLIFTFGPGTKVDIK
B3: Antibody 6003-471 (antibody, V domains shown)
VH: QVQLVQSGAEVKKPGSSVKVSCKASGGTFSNYAISWVRQAPGQGLEWMGRIIPIFGIANYAQKFQGRVTITADKSTSTAYMELSSLRSEDTAVYYCARDRRGFSGYEVFDYWGQGTLVTVSS
VL: DIQMTQSPSSLSASVGDRVTITCRASQGISSWLAWYQQKPEKAPKSLIYATSSLQSGVPSRFSGSGSGTDFTLTISSLQPEDFATYYCQQYNSYPITFGQGTRLEIK

Experiments:
Experiment in all cases: BLI (Octet384RED)
hBack [1] = target: T1, hBack
[2] = target: T2, Sortilin SORTECDBAP_hB12390
[3] = target: T3, Sortilin SORTECDBAP_hB01-05
[4] = target: T4, Sortilin SORTECDBAP_tetra
hBack [5] = target: T1, hBack
[6] = target: T2, Sortilin SORTECDBAP_hB12390
[7] = target: T3, Sortilin SORTECDBAP_hB01-05
[8] = target: T4, Sortilin SORTECDBAP_tetra

| Binder | EC50 (hBack [1]) [ng/mL] | EC50 [2] [ng/mL] | binding result [3] | binding result [4] | EC50 (hBack [5]) [ng/mL] | EC50 [6] [ng/mL] | binding result [7] | binding result [8] |
| --- | --- | --- | --- | --- | --- | --- | --- | --- |
| B1 | 2.62 | 11.4 | no binding | no binding |  |  |  |  |
| B2 |  |  |  |  | 4 | 3.55 | no binding | no binding |
| B3 |  |  |  |  | 2.54 | 3.16 | no binding | no binding |
